We go through one substance from PMC12079263.

This experiment concerns the target Rab11 (1–173, Q70L) with 6 × His, bound to GTP-γ-S (UniProt P62491). As to the kind of experiment: SPR. On the technique in general: Surface plasmon resonance follows binding to a sensor surface in real time, without labels.

Broadly, the Kd is the constant that tells how readily two partners part at equilibrium. Substance “p14^1–69 protein (p14 FAST protein of reptilian reovirus, residues 1-69) reconstituted into bicelles (domain or fragment)” came in with a Kd of 2130 nM.
